Data on six molecules can be found in PMC6747709 (2019).

Read-outs that look alike come from different tables or passages of the source.

What all share (assay): SPR
Assay [1] has as its target T1, CD47 extracellular domain (UniProt Q08722, biotin (enzymatically biotinylated; stated for the SPR experiment)).
Assay [2] addresses T1, CD47 extracellular domain. This is another data set of the same source.
Assay [3] has as its target T1, CD47 extracellular domain. The source holds these as a separate data set.
In assay [4] the target is T1, CD47 extracellular domain. The source holds these as a separate data set.
The target in assay [5] is T1, CD47 extracellular domain. This is another data set of the same source.
For assay [6], the target named is T1, CD47 extracellular domain. The source holds these as a separate data set.

T1 sequence (Q08722 19-141): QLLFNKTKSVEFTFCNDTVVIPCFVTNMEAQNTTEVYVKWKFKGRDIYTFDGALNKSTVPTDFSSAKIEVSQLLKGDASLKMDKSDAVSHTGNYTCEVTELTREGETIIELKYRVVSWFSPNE

B1: Nb02 mutant M4 (VHH)
VHH: EVQLQASGGGLVQAGGSLRLSCAASGFTNERSQNMGWFRQAPGKEREGVACIQSRVVECWYADSVKGRFTISRDNAKNTVYLQMNSLKPEDTAVYYCAAPRAITGHSAVGEHMCDYWGQGTQVTVSS
For the molecule B1, the koff – broadly, the rate constant with which the complex falls apart – in assay [1] was 0.000392 s⁻¹.

B2: Nb02 mutant M6 (VHH)
VHH: EVQLQASGGGLVQAGGSLRLSCAASGFTNERSQNMGWFRQAPGKEREGVACIQSRVVECWYADSVKGRFTISRDNAKNTVYLQMNSLKPEDTAVYYCAAPRAITWHVFVGEHMCDYWGQGTQVTVSS
Molecule B2 gave a dissociation rate constant (koff) in assay [2] of 0.000117 s⁻¹.

B3: Nb02 mutant M3 (VHH)
VHH: EVQLQASGGGLVQAGGSLRLSCAASGFTNERSQNMGWFRQAPGKEREGVACIQSRVVECWYADSVKGRFTISRDNAKNTVYLQMNSLKPEDTAVYYCAAPRAITGHVFVGEHMCDYWGQGTQVTVSS
Turning to B3, the koff in assay [3] stood at 0.000312 s⁻¹.

B4: Nb02 quadruple mutant M7 (G107W, T108H, S109V, F110A) (VHH)
VHH: EVQLQASGGGLVQAGGSLRLSCAASGFTNERSQNMGWFRQAPGKEREGVACISSRVVECWYADSVKGRFTISRDNAKNTVYLQMNSLKPEDTAVYYCAAPRAITWHVAVGEHMCDYWGQGTQVTVSS
As for B4, in assay [4], the off-rate constant (koff) came out at 4.04e-05 s⁻¹.

B5: Nb02 mutant M2 (VHH)
VHH: EVQLQASGGGLVQAGGSLRLSCAASGFTNERSQNMGWFRQAPGKEREGVACIQSRVVECWYADSVKGRFTISRDNAKNTVYLQMNSLKPEDTAVYYCAAPRAITWTVFVGEHMCDYWGQGTQVTVSS
As for B5, the koff in assay [5] stood at 2.73e-05 s⁻¹.

B6: Nb02 mutant M1 (VHH)
VHH: EVQLQASGGGLVQAGGSLRLSCAASGFTNERSQNMGWFRQAPGKEREGVACIQSRVVECWYADSVKGRFTISRDNAKNTVYLQMNSLKPEDTAVYYCAAPRAITWHSFVGEHMCDYWGQGTQVTVSS
Molecule B6 showed a koff in assay [6] of 0.000126 s⁻¹.
